For three molecules, binding result and Kd results are on record in patent CN117242096A (APTEVO RES AND DEVELOPMENT LIMITED, dated 2023).

What is called Kd is a measure of binding affinity in units of concentration. Higher therefore signals a looser complex.

One assay addresses T1, 全长食蟹猴PSMA (cynomolgus monkey, UniProt Q04609 1-750 (human entry)).
T1 construct: On transfected CHO cells; also called TSC308; cynoPSMA
T1 chain: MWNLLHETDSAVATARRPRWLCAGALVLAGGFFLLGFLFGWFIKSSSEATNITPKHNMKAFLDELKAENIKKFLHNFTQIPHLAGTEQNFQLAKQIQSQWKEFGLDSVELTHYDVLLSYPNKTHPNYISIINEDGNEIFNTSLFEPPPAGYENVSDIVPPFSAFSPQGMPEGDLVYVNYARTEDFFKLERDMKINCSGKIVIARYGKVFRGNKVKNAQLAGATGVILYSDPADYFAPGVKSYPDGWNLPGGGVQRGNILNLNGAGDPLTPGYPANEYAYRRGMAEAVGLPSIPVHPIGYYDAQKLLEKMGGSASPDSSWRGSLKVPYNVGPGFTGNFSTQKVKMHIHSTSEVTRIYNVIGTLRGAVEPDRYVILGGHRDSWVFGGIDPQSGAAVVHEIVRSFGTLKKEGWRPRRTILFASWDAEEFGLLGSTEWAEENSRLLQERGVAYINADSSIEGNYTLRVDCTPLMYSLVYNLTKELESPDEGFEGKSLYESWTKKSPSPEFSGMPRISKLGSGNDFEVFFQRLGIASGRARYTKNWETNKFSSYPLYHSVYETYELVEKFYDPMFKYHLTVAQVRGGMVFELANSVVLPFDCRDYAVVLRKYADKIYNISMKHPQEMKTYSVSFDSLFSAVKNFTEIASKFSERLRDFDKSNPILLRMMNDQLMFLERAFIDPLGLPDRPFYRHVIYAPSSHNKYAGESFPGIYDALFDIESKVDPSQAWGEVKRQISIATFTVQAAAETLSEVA
Description: MSD live-cell ELISA on CHOK1SV/cynoPSMA cells. For orientation: An ELISA detects its analyte on a solid surface through an enzyme-linked reagent.

The target in assay [1] is T2, 人PSMA ECD-AFH (可溶性人PSMA ECD，重组二聚体PSMA ECD) (human, UniProt Q04609 44-750).
T2 construct: Expressed in HEK-293, IMAC then SEC; the dimer fraction was used; also called TSC033; HuPSMA-AFH
T2 sequence (Q04609 other isoform, or with tags, fused parts or gaps): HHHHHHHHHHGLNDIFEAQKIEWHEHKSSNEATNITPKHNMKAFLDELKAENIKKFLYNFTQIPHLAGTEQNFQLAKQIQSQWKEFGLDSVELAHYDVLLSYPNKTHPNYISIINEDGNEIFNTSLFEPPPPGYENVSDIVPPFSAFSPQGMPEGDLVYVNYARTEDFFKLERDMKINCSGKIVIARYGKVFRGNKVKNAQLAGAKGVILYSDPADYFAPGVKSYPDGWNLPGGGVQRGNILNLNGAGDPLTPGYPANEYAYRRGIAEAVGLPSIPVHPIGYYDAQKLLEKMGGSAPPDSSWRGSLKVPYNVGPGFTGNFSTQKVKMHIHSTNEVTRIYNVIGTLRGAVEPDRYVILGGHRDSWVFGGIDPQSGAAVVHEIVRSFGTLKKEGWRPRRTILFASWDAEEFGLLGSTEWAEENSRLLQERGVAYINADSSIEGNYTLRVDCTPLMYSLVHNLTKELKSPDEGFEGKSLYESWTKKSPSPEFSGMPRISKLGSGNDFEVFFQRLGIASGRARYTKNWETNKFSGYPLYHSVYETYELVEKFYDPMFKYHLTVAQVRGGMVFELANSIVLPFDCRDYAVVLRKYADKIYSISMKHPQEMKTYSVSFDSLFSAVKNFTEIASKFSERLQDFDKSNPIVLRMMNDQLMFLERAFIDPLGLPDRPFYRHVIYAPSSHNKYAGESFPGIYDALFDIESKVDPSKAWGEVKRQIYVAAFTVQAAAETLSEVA
Description: SPR Biacore, dimeric PSMA ECD. For orientation: Surface plasmon resonance follows binding to a sensor surface in real time, without labels.

In assay [2] the target is T2, 人PSMA ECD-AFH (可溶性人PSMA ECD，重组二聚体PSMA …). Description: SPR Biacore T200, scFv-Fc captured by anti-human IgG, dimeric PSMA ECD as analyte.
Assay [3] addresses T3, 人CD3ε (TCR/CD3复合物，Jurkat细胞) (human, UniProt P07766 23-207).
T3 construct: whole, on cells; The other chains of the TCR/CD3 complex are present on the cells; also called CD3(+) Jurkat
Description: flow cytometry on Jurkat cells, domain within anti-TA x anti-CD3ε constructs. (A flow cytometer gives signals particle by particle.)

T3 sequence (P07766 23-207): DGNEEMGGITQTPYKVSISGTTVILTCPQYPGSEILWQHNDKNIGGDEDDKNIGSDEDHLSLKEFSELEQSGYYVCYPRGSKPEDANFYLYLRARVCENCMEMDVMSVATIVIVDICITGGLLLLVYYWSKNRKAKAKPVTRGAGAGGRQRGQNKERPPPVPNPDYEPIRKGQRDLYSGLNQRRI

B1: PSMA01023 (Fc fusion)
chain: DIQMTQSPSTLSASVGDRVTITCRASKSISKYLAWYQQKPGKAPKLLIHSGSSLESGVPSRFSGSGSGTEFTLTISSLQPDDFATYYCQQHIEYPWTFGQGTKVEIKGGGGSGGGGSGGGGSGGGGSQVQLVQSGAEVKKPGASVKVSCKASGYTFTDYYMHWVRQAPGQGLEWMGYFNPYNDYTRYAQKFQGRVTMTRDTSTSTVYMELSSLRSEDTAVYYCARSDGYYDAMDYWGQGTTVTVSSSEPKSSDKTHTCPPCPAPEAAGAPSVFLFPPKPKDTLMISRTPEVTCVVVDVSHEDPEVKFNWYVDGVEVHNAKTKPREEQYNSTYRVVSVLTVLHQDWLNGKEYKCAVSNKALPAPIEKTISKAKGQPREPQVYTLPPSRDELTKNQVSLTCLVKGFYPSDIAVEWESNGQPENNYKTTPPVLDSDGSFFLYSKLTVDKSRWQQGNVFSCSVMHEALHNHYTQKSLSLSPGK
notes: Monospecific bivalent anti-PSMA scFv-Fc, scFv in VL-VH orientation
For B1, the binding result with 全长食蟹猴PSMA was “binds”. Besides, the affinity in assay [1], expressed as Kd, was 40 nM.

B2: PSMA01012 (Fc fusion)
VH: QVQLVQSGAEVKKPGASVKVSCKASGYTFTDYYMHWVRQAPGQGLEWMGYFNPYNDYTRYAQKFQGRVTMTRDTSISTAYMELSSLRSDDTAVYYCARSDGYYDAMDYWGQGTTVTVSS
VL: DIQMTQSPSAMSASVGDRVTITCRASKSISKYLAWFQQKPGKVPKLRIHSGSTLQSGVPSRFSGSGSGTEFTLTISSLQPEDFATYYCQQHIEYPWTFGQGTKVEIKR
notes: Monospecific bivalent scFv-Fc, scFv in VL-VH orientation; also called TSC189 (结合结构域); 亲本构建体PSMA01012
B2: the binding result in assay [2] is reported as “binds”.

B3: CRIS7H16 (scFv, V domains shown)
VH: QVQLVQSGAEVKKPGASVKVSCKASGYTFTRSTMHWVRQAPGQGLEWIGYINPSSAYTNYAQKFQGRVTLTADKSTSTAYMELSSLRSEDTAVYYCASPQVHYDYNGFPYWGQGTLVTVSS
VL: DIQMTQSPSSLSASVGDRVTITCRASSSVSYMNWYQQKPGKAPKRWIYDSSKLASGVPSRFSGSGSGTDFTLTISSLQPEDFATYYCQQWSRNPPTFGQGTKVEIK
notes: also called H16 CD3结合结构域
On to B3, for which the binding result in assay [3] is on record as “binds”.
